Source: the supplement of paper PMC12042874
± gives the uncertainty stated by the source.

Assay: amyloid nucleation score (Sup35N fusion, yeast selection) (log enrichment); library NNK2; higher = more nucleation; inactive = no reads after selection
Procedure, shortened: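 The nucleation score is a DiMSum log enrichment of output over input reads, centred on the mode score of non-aggregating sequences. Sequences under 100 input reads were excluded, and reads came from Illumina sequencing of plasmid inserts. Psi-negative yeast expressing Sup35N fused to peptides of 20 random codons were induced with 100 μM copper sulfate for 24 hours and grown 7 days at 30°C on medium lacking adenine and uracil. Random libraries had three technical output replicates.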

| Substance | amyloid nucleation score |
| --- | --- |
| FRKGNIMELFALCCMISYCF | -0.682 ± 0.49 |
| FRLHLKEFDGVPRWCQYTF | inactive |
| FRLIQWWARWIVFFGSTSLH | -0.804 ± 0.45 |
| FRLRVRTVRQNCLYHWGSVE | 0.024 ± 0.56 |
| FRNSNLT | -0.462 ± 0.76 |
| FRTSYRSCCVNTYREVVVYA | -0.501 ± 0.45 |
| FRTYSAVVEWARNKYNLFCG | -0.271 ± 0.28 |
| FRVMSRVWTTEESAFLKLLC | -0.94 ± 0.63 |
| FSCMLNSNFH | inactive |
| FSDNKLFA | 0.715 ± 0.81 |
| FSFKPRTRSAGG | -0.11 ± 0.5 |
| FSFTYQRFSDITCQSTLGLV | -0.705 ± 0.26 |
| FSGDGCRDSA | 0.307 ± 0.56 |
| FSGTF | -1.07 ± 0.76 |
| FSLCSLAEVAKKVTTLRRDG | -0.277 ± 1.1 |
| FSLQQVNFMTVSRGKCSLKL | inactive |
| FSLSCM | inactive |
| FSLSQ | 3.55 ± 0.11 |
| FSMDHDDRSSCKAWHRSEFE | 1 ± 0.2 |
| FSNSTIFDVHAQVLGDFERP | -0.254 ± 1 |
| FSNVLRFSIA | -1.27 ± 0.45 |
| FSPKKFK | -0.532 ± 1 |
| FSPTGSITWNCIRYYLVTRS | -0.279 ± 0.33 |
| FSQYCMALLIVNQEFWACCW | -0.944 ± 0.45 |
| FSSCSDRLGHGLNSLTKHLI | -0.737 ± 0.39 |

| Substance | amyloid nucleation score |
| --- | --- |
| FSSEIRTLGQELVFGVISKA | -0.307 ± 0.76 |
| FSTWSTLDSVACW | inactive |
| FSWFFSNITITMNHCLGVSR | inactive |
| FSYRYIEDWCTNVGDLDVKL | -0.073 ± 0.26 |
| FTFLRRLMFTGFRLAIQNPS | inactive |
| FTFVWNVVQFGTFYGSHLRG | 4.5 ± 0.071 |
| FTFYR | 1.08 ± 0.41 |
| FTSASQFNNTGFCLI | -0.23 ± 0.79 |
| FTSVRMCCILTLGISGSVRA | inactive |
| FTWHLLYTNDCPLVIYMMEL | -0.403 ± 0.74 |
| FVCFPRSVAQRDDSSGVGGN | -0.121 ± 1.1 |
| FVCMIILS | 4.89 ± 0.064 |
| FVDVVPGKSGASET | -0.126 ± 0.49 |
| FVFRWNSVPIRLRVEQGCVF | 0.532 ± 0.47 |
| FVGCYNSRK | 2.4 ± 0.08 |
| FVIFVMNHLWFFWIVWEDRE | -1.26 ± 1.1 |
| FVLLFVYYFILFRLCRIQKV | inactive |
| FVLRCDPVMA | -0.053 ± 1 |
| FVNYSRGRFQVGLVMFRVRP | 0.427 ± 0.74 |
| FVRQNVSFTLGKYYQWVVGM | -0.933 ± 0.24 |
| FVSFSVGWTLCADMNLRMCF | 1.24 ± 0.22 |
| FVSRIGIFLS | -1.28 ± 0.78 |
| FVSRRIVAIPLWLLVSEITS | -0.201 ± 0.38 |
| FVTFFLSSHWVIVLDAYSLN | -0.61 ± 1.1 |
| FVVQCY | 0.998 ± 0.52 |

| Substance | amyloid nucleation score |
| --- | --- |
| FVVWWFLKEMRDSAGKGDEF | -0.49 ± 0.34 |
| FVYVVEGVWEKGIKFFMIFK | -0.913 ± 1.1 |
| FWDAWSDDRRERWRPCPPRT | 1.45 ± 0.38 |
| FWDSIKIHSKSLLSCIDGPW | 2.35 ± 0.066 |
| FWKSWHTPRALAKNSPSAFL | -0.779 ± 0.64 |
| FWLAWLAVRTNHFLAKITD | -0.267 ± 0.28 |
| FWPSQNYRHFLTHRGRRRRS | 0.552 ± 0.66 |
| FWPYRPCKLYVIYLR | inactive |
| FWSCVLSFVYN | 6.1 ± 0.067 |
| FWSGVTFSVLSYMSVSNMVP | -0.979 ± 0.55 |
| FWSSARKDLSATKKGVGFVG | 5.52 ± 0.06 |
| FWVKKLYLGIGSHVWNMGFN | inactive |
| FWYRAYDLIPVLTAGWRYLF | 0.001 ± 0.76 |
| FYAVHLCLTYALGCRLVTSC | -0.932 ± 0.76 |
| FYCIFNFDIFV | 6.286 ± 0.052 |
| FYCMKQLLNNIRWLGYSVCR | -1.28 ± 1.1 |
| FYGAKMSIHSYC | inactive |
| FYGFL | inactive |
| FYGPFV | 0.729 ± 0.23 |
| FYHLLLTFGKIVVVQAAWSM | 0.981 ± 0.51 |
| FYINTYQVSQGFIA | inactive |
| FYKWGVVIFDGNCIEKWDIL | -1.52 ± 0.75 |
| FYLISWKWVKHVGIFA | -0.618 ± 1.1 |
| FYLSFRVECLGRR | 4.782 ± 0.045 |
| FYMNPRRYRGLVIMFFSSPV | -1.27 ± 1.1 |

| Substance | amyloid nucleation score |
| --- | --- |
| FYMYFPNRAYWVGLGLTPML | -0.365 ± 0.61 |
| FYNNPDGDRVDVRSCCYYMW | 7.19 ± 0.073 |
| FYNYRNDVIFVFLAHMPANY | 2.43 ± 0.13 |
| FYQRLMSLTTMYLIQRHSL | -0.038 ± 0.74 |
| FYRRNNSPYSFAVRCGVWFL | inactive |
| FYSAVYMLFIVMWFGY | inactive |
| FYSFRLFMV | 1.88 ± 0.2 |
| FYSTVGSSFWTARQGISLQI | 1.05 ± 0.25 |
| FYSVNCFFFCHSIVILEKLF | 3.33 ± 0.15 |
| FYVLWQLVVYAMVMYWDTYS | inactive |
| FYVYFVCEKIES | -0.076 ± 0.79 |
| GALKSMLQVFQEGLLHDWSI | -0.936 ± 0.31 |
| GALNISLDTLMVSRCYFHSP | 0.945 ± 0.31 |
| GALTQSVLIYRH | 2.12 ± 0.13 |
| GARMSRSSGFSVQYNFSGQG | 4.11 ± 0.093 |
| GASLLFALSLSYKFHQYLVD | -1.44 ± 0.49 |
| GASSPGSAMLTVGILEVVVG | -0.375 ± 0.31 |
| GATLGVADRPGKSAGLPWTD | 0.998 ± 0.15 |
| GAYYSQ | -0.316 ± 0.46 |
| GCDDDDAA | 1.31 ± 0.32 |
| GCDEEDCCCLRFRGC | 6.513 ± 0.031 |
| GCFPSLWWLLPGCFACYSLR | 0.721 ± 0.8 |
| GCKLPYE | -1.39 ± 0.75 |
| GCRTFDPSNGAAIDGAMSFV | inactive |
| GCTRE | 1.36 ± 0.53 |

| Substance | amyloid nucleation score |
| --- | --- |
| GCYTET | 0.729 ± 0.52 |
| GDAIANCIVVWYGHAMPARY | 2.06 ± 0.12 |
| GDCQE | 1.1 ± 0.23 |
| GDDLPWWCISIWFFLSWLEN | inactive |
| GDDWSADVVI | -0.718 ± 0.55 |
| GDGLEMCWVA | -0.226 ± 0.37 |
| GDSIDARGRVQAPQSKEGLR | 1.12 ± 0.42 |
| GEDTFYSISCYVQMLL | 1.49 ± 0.08 |
| GEGGANVMCRVAGIIR | 1.17 ± 0.17 |
| GEQDDVPRFGYTKACEFLFA | inactive |
| GETLSTDYLWQPTHA | 0.877 ± 0.58 |
| GEYISEGDCTCRLQRMVVIE | -0.025 ± 0.76 |
| GFCKEYGEVLIIRLSDSCCD | -0.393 ± 0.56 |
| GFFLSNFSVFYKCIRSVVDT | -1.81 ± 0.62 |
| GFHLQMEEVASYFLEIRPFC | 0.02 ± 0.79 |
| GFICMVMDKCYYRGRNFVGV | -0.106 ± 0.44 |
| GFKDCV | 0.263 ± 0.22 |
| GFKILIEFWSATGRLQ | 3.97 ± 0.078 |
| GFPLWSAGNCFALNAGRDAG | 0.777 ± 0.19 |
| GFRTFRRGREWSLE | 0.714 ± 0.34 |
| GFSPSMECHVMEAHLDMRVR | 0.227 ± 0.21 |
| GFSVRVGVMTFDSFDWRVLF | 1.72 ± 0.15 |
| GFSVSARVMIDLPYVEVRFS | 0.07 ± 0.74 |
| GFVINFYLNGVALQRVILAF | inactive |
| GFWITVESNNTYNRFLDISC | 2.67 ± 0.089 |

| Substance | amyloid nucleation score |
| --- | --- |
| GFWVWMWPRSHCAGGPSLDL | 1.13 ± 0.4 |
| GGCGLH | 0.261 ± 0.4 |
| GGDVNGVSCYGGDVGLSAKG | 0.616 ± 0.25 |
| GGEIESIGFRLGCLSRRSES | -0.383 ± 0.49 |
| GGGYLCRVDYGSIDLTWLKS | -0.559 ± 0.76 |
| GGKFSVIGVGHLLDGEH | 1.14 ± 0.15 |
| GGLDLRIMR | 2.41 ± 0.081 |
| GGMYKSMRGWLTGCFVAWVV | 0.369 ± 0.34 |
| GGNCVVNSIFVDLAICYVRR | 9.818 ± 0.057 |
| GGNFLVCYVFDDSCHWIMMY | 4.56 ± 0.086 |
| GGNFYGGEYDMGGGSIRHYG | inactive |
| GGQEIAYILTSVSSLSNPMW | 3.24 ± 0.1 |
| GGSGSDYLSPSGIVEGYRLG | -0.663 ± 0.54 |
| GGSRTRSCQDRAHCSVGGM | 0.598 ± 0.39 |
| GGSSRQTHW | -0.375 ± 1.1 |
| GGTGVAV | 0.183 ± 0.34 |
| GGTQLRTG | -0.961 ± 1.1 |
| GHAIWSSIVFVGWNLRGDS | 0.065 ± 0.46 |
| GHGKPTGYYGDYENQTVLY | -0.25 ± 0.61 |
| GHSGTVSTQRVCPSSSLWYR | 0.462 ± 0.4 |
| GHVAWSNDSWERESFF | -0.989 ± 0.76 |
| GHVCKFHTLHWR | -1.17 ± 0.61 |
| GICVFCNSYWL | 8.843 ± 0.055 |
| GIDWFTTVMFPAIWVTDILL | 4.593 ± 0.044 |
| GIFCSVGMLTVCLLVRDKLV | inactive |

| Substance | amyloid nucleation score |
| --- | --- |
| GIIRC | 0.209 ± 0.5 |
| GIIWT | -0.078 ± 0.26 |
| GILYLSLYDFCV | -0.763 ± 1 |
| GISAHHALVTLMLMAIVGHY | 1.55 ± 0.55 |
| GIWITGAWTTSLLCIRTLLG | 0.631 ± 0.43 |
| GIWNLQYRREV | 0.596 ± 0.32 |
| GIYFIYLSM | 5.918 ± 0.059 |
| GKFQMS | -0.244 ± 0.56 |
| GKFYQMENSV | -1.27 ± 0.78 |
| GKGNAFVLNFSYGYRCVYHG | 6.398 ± 0.04 |
| GKGSRFRYSIGG | 0.943 ± 0.47 |
| GKIKIEGNDLIGGLQGRLRP | inactive |
| GKLAARTAINSLFCKLGRRP | -0.066 ± 0.63 |
| GKMTPLLVNQTVSYCMLSSM | 6.273 ± 0.035 |
| GKNMRYFRQTGCH | -0.39 ± 0.21 |
| GKSYPPHLHHDNNKAYRVLP | -0.178 ± 1.1 |
| GKTISNFLGMTTSCEFGR | -0.81 ± 1 |
| GKVGNNTLSVYGMDTT | inactive |
| GLCYKFVRFSYA | 2.16 ± 0.1 |
| GLGAFSSP | 0.247 ± 0.46 |
| GLGALVGVTLYRRTQQNMWG | 6.313 ± 0.056 |
| GLGLSFDVSVVPQDGYGIRL | -0.492 ± 1.1 |
| GLLEVIF | 0.119 ± 0.74 |
